From patent US20040048790A1 come the findings set out here.

Assay [1] addresses HLA-A*2401 (human). In words: competition vs 125I-labelled probe peptide, purified HLA, gel filtration. The note with it: scale: ratio to standard peptide. For orientation: In gel filtration, larger molecules generally elute earlier.
The target of assay [2] is HLA-A*0301 (human). Nature of the assay: competition with 125I-labelled probe peptide for purified HLA-A*0301.
Assay [3] concerns the target HLA-A*0206 (human). In words: 125I-probe peptide inhibition, purified HLA.
In assay [4] the target is HLA-A*0201 (human). In words: 125I-probe peptide inhibition, purified HLA.
Assay [5] concerns the target HLA-A*0301 (human). Nature of the assay: 125I-probe peptide inhibition, purified HLA.
Assay [6] deals with HLA-A*6801 (human). In words: 125I-probe peptide inhibition, purified HLA.

In the case of p53 peptide, position 18, 8 amino acids, the relative binding ratio in assay [1] stood at 0.0016.
On to p53 peptide, position 18, 9 amino acids, for which the relative binding ratio in assay [1] was found to be 0.001.
“p53 peptide, position 22, 11 amino acids”: the relative binding ratio in assay [1] is -0.0003.
Regarding “p53 peptide, position 43, 11 amino acids”, the relative binding ratio in assay [1] turned out to be 0.0023.
Consider “p53 peptide, position 102, 8 amino acids”, for which the relative binding ratio in assay [1] is 0.11.
Take “p53 peptide, position 102, 10 amino acids”: the relative binding ratio in assay [1] is 0.12.
Take “p53 peptide, position 106, 8 amino acids”: the relative binding ratio in assay [1] was found to be 0.028.
In the case of “p53 peptide, position 106, 9 amino acids”, the relative binding ratio in assay [1] was determined as 0.02.
Take “p53 peptide, position 117, 10 amino acids”: in assay [1], the relative binding ratio came to 0.0001.
For “p53 peptide, position 125, 10 amino acids”, in assay [1], the relative binding ratio was 5.1.
Turning to “p53 peptide, position 204, 9 amino acids”, in assay [1], the relative binding ratio is 0.001.
For the substance “p53 peptide, position 311, 10 amino acids”, in assay [2], the relative binding ratio was 0.0035.
With “p53 peptide, position 337, 8 amino acids”, the relative binding ratio in assay [1] is -0.0004.
In the case of “p53 peptide, position 340, 9 amino acids”, in assay [1], the relative binding ratio worked out at 0.0001.
For p53.65 (10-mer) (peptide), the IC50 (commonly the concentration needed to halve the response being measured) in assay [3] amounted to 841 nM.
As to p53.129 (9-mer) (peptide), in assay [4], the IC50 is 735 nM.
In the case of p53.240 (9-mer …) (peptide), the IC50 in assay [5] is 550 nM.
In turn, p53.273 (8-mer) (peptide) returned an IC50 in assay [6] of 571 nM.
